{"source": "paper PMC13588620", "about": "(eLife, 2026)", "binders": {"B1": {"name": "mBG17 anti-SARS-CoV-2 nucleocapsid protein mouse monoclonal antibody (recombinant) (antibody, V domains shown)", "VH": "EVKLEESGGGLVQPGGSMKFSCVASGFTFSDYWMNWVRQSPDKGLEWVAEIRLKSNNYATHYAASVKGRFTISRDDSKSSVYLQMNNLRAEDSGIYYCTRSAMDYWGQGTSVTVSS", "VL": "DIVMSQSPSSLAVSVGEKITMSCKSSQSLLYTSDQKNYLAWFQQKPGQSPKLLIFWASTRDSGVPDRFTGSGSGTDFTLTISSVKAEDLAVYYCQQFYNYPRTFGGGTKLEI", "notes": "VH of mBG17; VL of mBG17; also called recombinant mBG17 antibody; source: recombinant antibody produced in 293F cells (as described in Terry et al., 2021)"}}, "target": "T1, recombinant SARS-CoV-2 nucleocapsid protein (Severe acute respiratory syndrome …, UniProt P0DTC9)", "T1 construct": "SARS-CoV-2 nucleocapsid protein; also called NP; N-protein", "experiment": "ELISA; peptide competition ELISA: plate coated with 0.1 ug/ml recombinant SARS-CoV-2 NP overnight at 4°C; 40 μl mBG17 pre-incubated 1 h at room temperature with 40 μg (approximately 30 nMol) of a single peptide fragment, then applied to the plate in triplicate; HRP goat anti-mouse detection; percent of no-peptide control", "details": "both partners purified", "data": [{"binder": "B1", "values": [{"measurement": "binding result", "result": "binds"}]}]}
